The test system of data set [1] is HeLa Kyoto. The experiment in a line: melting temperature (median over replicates), in situ; higher = more thermally stable.
The test system of data set [2] is HeLa Kyoto. As to the kind of experiment: thermal stability score vs G1/S (z-score of summed log2 fold changes over temperatures); higher = more thermally stable than in G1/S.
In data set [3] the test system is HeLa Kyoto. As to the kind of experiment: solubility in G1/S (NP-40 vs SDS abundance) (log2 ratio); higher = more soluble. As to conditions: cell cycle stage: G1/S.
For data set [4], the system named is HeLa Kyoto. The experiment in a line: solubility change mitosis vs G1/S (difference of NP-40 vs SDS log2 ratios) (log2 ratio difference); higher = more soluble in mitosis.
[5] abbreviates: cell cycle stage: early G1 (4.5 h after nocodazole release).
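Throughout, for melting temperature (median over replicates), in situ: HeLa Kyoto cells synchronized by double thymidine or nocodazole block, proteins quantified by TMT10plex mass spectrometry, three independent biological replicates.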
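Throughout, for solubility change mitosis vs G1/S (difference of NP-40 vs SDS log2 ratios): synchronized HeLa Kyoto cells (double thymidine block for G1/S, nocodazole release for mitosis), protein amounts in NP-40 versus SDS lysates quantified by mass spectrometry, three biological replicates.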
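Throughout, for solubility in G1/S (NP-40 vs SDS abundance): HeLa Kyoto cells arrested at G1/S by double thymidine block, proteins quantified by TMT10plex mass spectrometry in mild NP-40 versus SDS extracts, three biological replicates.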
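Throughout, for thermal stability score vs G1/S (z-score of summed log2 fold changes over temperatures): synchronized HeLa Kyoto cells, proteins quantified by TMT10plex mass spectrometry, three biological replicates, mitosis taken 0.5 h after nocodazole release, G1/S directly after double thymidine block.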

“MAAGTAAALAFLSQESRTRAGGVGGLRVPAPVTMDSFFFGCELSGHTRSFTFKVEEEDDAEHVLALTMLCLTEGAKDECNVVEVVARNHDHQEIAVPVANLKLSCQPMLSLDDFQLQPPVTFRLKSGSGPVRITGRHQIVTMSNDVSEEESEEEEEDSDEEEVELCPILPAKKQGGRP [NPM3]”: the melting temperature with HeLa Kyoto [1] (cell cycle stage: G1/S) turned out to be 54 °C; in the data set on HeLa Kyoto [1] (cell cycle stage: mitosis) it was 53 °C. The thermal stability score is -0.577 with HeLa Kyoto [2] (setting [5]) and -2.29 in the data set with HeLa Kyoto [2] (cell cycle stage: mitosis). For the same sequence, the “solubility in G1/S (log2)” value in the data set with HeLa Kyoto [3] was -0.153. Further, the “solubility change mitosis (log2)” value in the data set with HeLa Kyoto [4] was 0.0933.

For “MAAHGGSAASSALKGLIQQFTTITGASESVGKHMLEACNNNLEMAVTMFLDGGGIAEEPSTSSASVSTVRPHTEEEVRAPIPQKQEILVEPEPLFGAPKRRRPARSIFDGFRDFQTETIRQEQELRNGGAIDKKLTTLADLFRPPIDLMHKGSFETAKECGQMQNKWLMINIQNVQDFACQCLNRDVWSNEAVKNIIREHFIFWQVYHDSEEGQRYIQFYKLGDFPYVSILDPRTGQKLVEWHQLDVSSFLDQVTGFLGEHGQLDGLSSSPPKKCARSESLIDASEDSQLEAAIRASLQETHFDSTQTKQDSRSDEESESELFSGSEEFISVCGSDEEEEVENLAKSRKSPHKDLGHRKEENRRPLTEPPVRTDPGTATNHQGLPAVDSEILEMPPEKADGVVEGIDVNGPKAQLMLRYPDGKREQITLPEQAKLLALVKHVQSKGYPNERFELLTNFPRRKLSHLDYDITLQEAGLCPQETVFVQERN [UBXN7]”, the melting temperature with HeLa Kyoto [1] (cell cycle stage: G1/S) and in the data set on HeLa Kyoto [1] (cell cycle stage: mitosis) was 52.8 °C in each case. Besides, the thermal stability score with HeLa Kyoto [2] (setting [5]) is -0.156; with HeLa Kyoto [2] (cell cycle stage: mitosis), -0.248. For the same sequence, the “solubility in G1/S (log2)” value in the data set on HeLa Kyoto [3] is 0.148. Also, the “solubility change mitosis (log2)” value in the data set on HeLa Kyoto [4] was -0.138.

“MAAHRPGPLKQQNKAHKGGRHRGRGSAQRDGKGRLALKTLSKKVRKELSRVDQRHRASQLRKQKKEAVLAEKRQLGGKDGPPHQVLVVPLHSRISLPEAMQLLQDRDTGTVHLNELGNTQNFMLLCPRLKHRWFFTSARPGDLHVVLDMAKVADTILFLLDPLEGWDSTGDYCLSCLFAQGLPTYTLAVQGISGLPLKKQIDTRKKLSKAVEKRFPHDKLLLLDTQQEAGMLLRQLANQKQQHLAFRDRRAYLFAHAVDFVPSEENNLVGTLKISGYVRGQTLNVNRLLHIVGYGDFQMKQIDAPGDPFPLNPRGIKPQKDPDMAMEICATDAVDDMEEGLKVLMKADPGRQESLQAEVIPDPMEGEQTWPTEEELSEAKDFLKESSKVVKKVPKGTSSYQAEWILDGGSQSGGEGDEYEYDDMEHEDFMEEESQDESSEEEEEYETMTIGESVHDDLYDKKVDEEAEAKMLEKYKQERLEEMFPDEVDTPRDVAARIRFQKYRGLKSFRTSPWDPKENLPQDYARIFQFQNFTNTRKSIFKEVEEKEVEGAEVGWYVTLHVSEVPVSVVECFRQGTPLIAFSLLPHEQKMSVLNMVVRRDPGNTEPVKAKEELIFHCGFRRFRASPLFSQHTAADKHKLQRFLTADMALVATVYAPITFPPASVLLFKQKSNGMHSLIATGHLMSVDPDRMVIKRVVLSGHPFKIFTKMAVVRYMFFNREDVLWFKPVELRTKWGRRGHIKEPLGTHGHMKCSFDGKLKSQDTVLMNLYKRVFPKWTYDPYVPEPVPWLKSEISSTVPQGGME [TSR1]”: the melting temperature with HeLa Kyoto [1] (cell cycle stage: G1/S) was 48.3 °C; in the data set with HeLa Kyoto [1] (cell cycle stage: mitosis) it was 50.6 °C. For the same sequence, the thermal stability score amounted to 0.699 in the data set with HeLa Kyoto [2] (setting [5]) and 5.63 with HeLa Kyoto [2] (cell cycle stage: mitosis). Moreover, in the data set on HeLa Kyoto [3], the “solubility in G1/S (log2)” value was -0.634. Also, in the data set on HeLa Kyoto [4], the “solubility change mitosis (log2)” value was found to be 0.0446.

In the case of “MAALAPLPPLPAQFKSIQHHLRTAQEHDKRDPVVAYYCRLYAMQTGMKIDSKTPECRKFLSKLMDQLEALKKQLGDNEAITQEIVGCAHLENYALKMFLYADNEDRAGRFHKNMIKSFYTASLLIDVITVFGELTDENVKHRKYARWKATYIHNCLKNGETPQAGPVGIEEDNDIEENEDAGAASLPTQPTQPSSSSTYDPSNMPSGNYTGIQIPPGAHAPANTPAEVPHSTGVASNTIQPTPQTIPAIDPALFNTISQGDVRLTPEDFARAQKYCKYAGSALQYEDVSTAVQNLQKALKLLTTGRE [VTA1]”, the values for the melting temperature with HeLa Kyoto [1] (cell cycle stage: G1/S) and in the data set on HeLa Kyoto [1] (cell cycle stage: mitosis) were 50.9 °C and 50.4 °C, respectively. Also, the figures for the thermal stability score with HeLa Kyoto [2] (setting [5]) and in the data set with HeLa Kyoto [2] (cell cycle stage: mitosis) were -1.99 and -2.34, respectively. The “solubility in G1/S (log2)” value in the data set on HeLa Kyoto [3] amounted to 0.0799. Besides, the “solubility change mitosis (log2)” value in the data set with HeLa Kyoto [4] was determined as 0.325.

On to “MAALEEEFTLSSVVLSAGPEGLLGVEQSDKTDQFLVTDSGRTVILYKVSDQKPLGSWSVKQGQIITCPAVCNFQTGEYVVVHDNKVLRIWNNEDVNLDKVFKATLSAEVYRILSVQGTEPLVLFKEGAVRGLEALLADPQQKIETVISDEEVIKWTKFFVVFRHPVLIFITEKHGNYFAYVQMFNSRILTKYTLLLGQDENSVIKSFTASVDRKFISLMSLSSDGCIYETLIPIRPADPEKNQSLVKSLLLKAVVSGNARNGVALTALDQDHVAVLGSPLAASKECLSVWNIKFQTLQTSKELPQGTSGQLWYYGEHLFMLHGKSLTVIPYKCEVSSLAGALGKLKHSQDPGTHVVSHFVNWETPQGCGLGFQNSEQSRRILRRRKIEVSLQPEVPPSKQLLSTIMKDSEKHIEVEVRKFLALKQTPDFHTVIGDTVTGLLERCKAEPSFYPRNCLMQLIQTHVLSYSLCPDLMEIALKKKDVQLLQLCLQQFPDIPESVTCACLKIFLSIGDDSLQETDVNMESVFDYSINSVHDEKMEEQTEILQNGFNPEEDKCNNCDQELNKKPQDETKESTSCPVVQKRAALLNAILHSAYSETFLLPHLKDIPAQHITLFLKYLYFLYLKCSENATMTLPGIHPPTLNQIMDWICLLLDANFTVVVMMPEAKRLLINLYKLVKSQISVYSELNKIEVSFRELQKLNQEKNNRGLYSIEVLELF [NOL11]”, for which the figures for the melting temperature in the data set on HeLa Kyoto [1] (cell cycle stage: G1/S) and in the data set with HeLa Kyoto [1] (cell cycle stage: mitosis) were 55.1 °C and 52.9 °C, respectively. For the same sequence, the thermal stability score in the data set on HeLa Kyoto [2] (setting [5]) is -2.5; in the data set with HeLa Kyoto [2] (cell cycle stage: mitosis) it was -6.66. Further, the “solubility in G1/S (log2)” value in the data set with HeLa Kyoto [3] is -0.963. The “solubility change mitosis (log2)” value in the data set on HeLa Kyoto [4] amounted to 0.471.

As to “MAALGEPVRLERDICRAIELLEKLQRSGEVPPQKLQALQRVLQSEFCNAVREVYEHVYETVDISSSPEVRANATAKATVAAFAASEGHSHPRVVELPKTEEGLGFNIMGGKEQNSPIYISRIIPGGIADRHGGLKRGDQLLSVNGVSVEGEHHEKAVELLKAAQGKVKLVVRYTPKVLEEMESRFEKMRSAKRRQQT [LIN7C]”, the values for the melting temperature in the data set with HeLa Kyoto [1] (cell cycle stage: G1/S) and in the data set with HeLa Kyoto [1] (cell cycle stage: mitosis) were 50.1 °C and 51.5 °C, respectively. Further, the figures for the thermal stability score in the data set with HeLa Kyoto [2] (setting [5]) and with HeLa Kyoto [2] (cell cycle stage: mitosis) were -0.659 and -0.713, respectively. Also, in the data set on HeLa Kyoto [3], the “solubility in G1/S (log2)” value was 0.382. The “solubility change mitosis (log2)” value with HeLa Kyoto [4] is 0.202.

(Values after the supplement of paper PMC5998384.)
